Test results taken from the supplement of paper PMC9112550, “Optimization of the antimicrobial peptide Bac7 by deep mutational scanning” (BMC Biology, 2022).

These sequences were tested on Escherichia coli TOP10 (assay: shrunken log2 fold change of peptide-encoding DNA abundance (4.5 h post-induction vs induction); higher = less antimicrobial activity (less host growth inhibition)). Settings: time post-induction: 4.5 h; library: site-saturation at positions 5, 18, 19, 20.
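Also: peptides expressed intracellularly from a pBAD plasmid library in pooled LB shake-flask culture, induced with 0.3% L-arabinose, DNA abundance read by NGS, three biological replicates, DESeq2 with apeglm shrinkage.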

Sequence | shrunken log2 fold change
RRIRRRPPRLPRPRPRPCMQPRP | 0.23
RRIRRRPPRLPRPRPRPCPWPRP | -0.0433
RRIRRRPPRLPRPRPRPCSSPRP | 0.0589
RRIRRRPPRLPRPRPRPCTEPRP | 0.106
RRIRRRPPRLPRPRPRPCVSPRP | 0.0908
RRIRRRPPRLPRPRPRPCWDPRP | 0.234
RRIRRRPPRLPRPRPRPCYGPRP | -0.214
RRIRRRPPRLPRPRPRPCYWPRP | 0.00692
RRIRRRPPRLPRPRPRPDAGPRP | 0.307
RRIRRRPPRLPRPRPRPDCKPRP | -0.176
RRIRRRPPRLPRPRPRPDDGPRP | -0.147
RRIRRRPPRLPRPRPRPDEGPRP | -0.00319
RRIRRRPPRLPRPRPRPDFHPRP | -0.111
RRIRRRPPRLPRPRPRPDFNPRP | -0.155
RRIRRRPPRLPRPRPRPDFQPRP | -0.135
RRIRRRPPRLPRPRPRPDGEPRP | -0.0341
RRIRRRPPRLPRPRPRPDGLPRP | 0.771
RRIRRRPPRLPRPRPRPDGNPRP | 0.0694
RRIRRRPPRLPRPRPRPDHIPRP | 0.0664
RRIRRRPPRLPRPRPRPDNQPRP | 0.0853
RRIRRRPPRLPRPRPRPDRPPRP | 0.13
RRIRRRPPRLPRPRPRPDRWPRP | 0.957
RRIRRRPPRLPRPRPRPDSYPRP | -0.117
RRIRRRPPRLPRPRPRPDTKPRP | -0.139
RRIRRRPPRLPRPRPRPDVKPRP | 3.47

Sequence | shrunken log2 fold change
RRIRRRPPRLPRPRPRPDWTPRP | -0.133
RRIRRRPPRLPRPRPRPDYQPRP | 0.0952
RRIRRRPPRLPRPRPRPEDKPRP | 0.103
RRIRRRPPRLPRPRPRPEDMPRP | 0.296
RRIRRRPPRLPRPRPRPEFFPRP | 0.216
RRIRRRPPRLPRPRPRPEFYPRP | 0.413
RRIRRRPPRLPRPRPRPEGCPRP | 0.863
RRIRRRPPRLPRPRPRPEGIPRP | 0.252
RRIRRRPPRLPRPRPRPEHCPRP | -0.00244
RRIRRRPPRLPRPRPRPEHFPRP | 0.301
RRIRRRPPRLPRPRPRPEHRPRP | 0.343
RRIRRRPPRLPRPRPRPEKAPRP | 0.0304
RRIRRRPPRLPRPRPRPEPCPRP | 0.388
RRIRRRPPRLPRPRPRPEPIPRP | 0.378
RRIRRRPPRLPRPRPRPESGPRP | 0.545
RRIRRRPPRLPRPRPRPETCPRP | -0.00655
RRIRRRPPRLPRPRPRPEWFPRP | -0.159
RRIRRRPPRLPRPRPRPEYHPRP | 0.311
RRIRRRPPRLPRPRPRPFACPRP | 0.152
RRIRRRPPRLPRPRPRPFDAPRP | 0.44
RRIRRRPPRLPRPRPRPFDKPRP | 0.0721
RRIRRRPPRLPRPRPRPFEFPRP | 0.117
RRIRRRPPRLPRPRPRPFFAPRP | 0.98
RRIRRRPPRLPRPRPRPFFYPRP | 0.0607
RRIRRRPPRLPRPRPRPFGLPRP | -0.0905

Sequence | shrunken log2 fold change
RRIRRRPPRLPRPRPRPFGMPRP | -0.0784
RRIRRRPPRLPRPRPRPFGWPRP | 0.271
RRIRRRPPRLPRPRPRPFHAPRP | 0.201
RRIRRRPPRLPRPRPRPFKAPRP | 0.182
RRIRRRPPRLPRPRPRPFKHPRP | -0.212
RRIRRRPPRLPRPRPRPFMSPRP | -0.327
RRIRRRPPRLPRPRPRPFNFPRP | -0.473
RRIRRRPPRLPRPRPRPFNMPRP | -0.362
RRIRRRPPRLPRPRPRPFNPPRP | -0.277
RRIRRRPPRLPRPRPRPFNVPRP | -0.264
RRIRRRPPRLPRPRPRPFQDPRP | -0.15
RRIRRRPPRLPRPRPRPFQHPRP | -0.248
RRIRRRPPRLPRPRPRPFRCPRP | -0.15
RRIRRRPPRLPRPRPRPFREPRP | 0.163
RRIRRRPPRLPRPRPRPFYVPRP | -0.0483
RRIRRRPPRLPRPRPRPGAHPRP | 0.45
RRIRRRPPRLPRPRPRPGCGPRP | 0.657
RRIRRRPPRLPRPRPRPGDFPRP | 0.464
RRIRRRPPRLPRPRPRPGDYPRP | -0.045
RRIRRRPPRLPRPRPRPGGMPRP | 0.235
RRIRRRPPRLPRPRPRPGGRPRP | 0.295
RRIRRRPPRLPRPRPRPGGVPRP | 0.483
RRIRRRPPRLPRPRPRPGGWPRP | 0.824
RRIRRRPPRLPRPRPRPGIGPRP | -0.00887
RRIRRRPPRLPRPRPRPGILPRP | -0.174

Sequence | shrunken log2 fold change
RRIRRRPPRLPRPRPRPGKWPRP | 0.152
RRIRRRPPRLPRPRPRPGLGPRP | 0.55
RRIRRRPPRLPRPRPRPGLLPRP | 0.0882
RRIRRRPPRLPRPRPRPGMDPRP | 0.0814
RRIRRRPPRLPRPRPRPGPHPRP | 0.437
RRIRRRPPRLPRPRPRPGPIPRP | 0.174
RRIRRRPPRLPRPRPRPGPTPRP | 0.678
RRIRRRPPRLPRPRPRPGQKPRP | -0.0196
RRIRRRPPRLPRPRPRPGQNPRP | 0.203
RRIRRRPPRLPRPRPRPGRFPRP | 0.451
RRIRRRPPRLPRPRPRPGRNPRP | -0.000492
RRIRRRPPRLPRPRPRPGTLPRP | -0.0513
RRIRRRPPRLPRPRPRPGWFPRP | 0.283
RRIRRRPPRLPRPRPRPGWPPRP | 0.858
RRIRRRPPRLPRPRPRPGYEPRP | 0.0872
RRIRRRPPRLPRPRPRPGYTPRP | 0.243
RRIRRRPPRLPRPRPRPHCEPRP | -0.169
RRIRRRPPRLPRPRPRPHESPRP | 0.0784
RRIRRRPPRLPRPRPRPHFFPRP | 0.149
RRIRRRPPRLPRPRPRPHFTPRP | -0.0671
RRIRRRPPRLPRPRPRPHFVPRP | -0.103
RRIRRRPPRLPRPRPRPHGHPRP | 0.224
RRIRRRPPRLPRPRPRPHHAPRP | -0.0424
RRIRRRPPRLPRPRPRPHIKPRP | -0.43
RRIRRRPPRLPRPRPRPHIQPRP | -0.114

Sequence | shrunken log2 fold change
RRIRRRPPRLPRPRPRPHLNPRP | -0.194
RRIRRRPPRLPRPRPRPHMDPRP | -0.265
RRIRRRPPRLPRPRPRPHMEPRP | 0.0679
RRIRRRPPRLPRPRPRPHMGPRP | -0.15
RRIRRRPPRLPRPRPRPHMLPRP | -0.0594
RRIRRRPPRLPRPRPRPHMQPRP | 0.0237
RRIRRRPPRLPRPRPRPHNPPRP | -0.0181
RRIRRRPPRLPRPRPRPHPGPRP | 0.316
RRIRRRPPRLPRPRPRPHRQPRP | 0.0248
RRIRRRPPRLPRPRPRPHSEPRP | 0.0888
RRIRRRPPRLPRPRPRPHSNPRP | -0.281
RRIRRRPPRLPRPRPRPHSSPRP | -0.00646
RRIRRRPPRLPRPRPRPIACPRP | 0.0283
RRIRRRPPRLPRPRPRPIDDPRP | -0.128
RRIRRRPPRLPRPRPRPIDPPRP | -0.0222
RRIRRRPPRLPRPRPRPIEAPRP | -0.137
RRIRRRPPRLPRPRPRPIFHPRP | 0.129
RRIRRRPPRLPRPRPRPIFIPRP | -0.0166
RRIRRRPPRLPRPRPRPIHLPRP | -0.0465
RRIRRRPPRLPRPRPRPIIWPRP | -0.0862
RRIRRRPPRLPRPRPRPIMFPRP | -0.0974
RRIRRRPPRLPRPRPRPIPMPRP | 0.287
RRIRRRPPRLPRPRPRPIQPPRP | -0.0245
RRIRRRPPRLPRPRPRPISYPRP | 0.0496
RRIRRRPPRLPRPRPRPITQPRP | -0.0203

Sequence | shrunken log2 fold change
RRIRRRPPRLPRPRPRPIVKPRP | -0.0348
RRIRRRPPRLPRPRPRPIVRPRP | 0.117
RRIRRRPPRLPRPRPRPIVYPRP | -0.00893
RRIRRRPPRLPRPRPRPIWVPRP | 0.222
RRIRRRPPRLPRPRPRPIYGPRP | -0.69
RRIRRRPPRLPRPRPRPKAFPRP | -0.0104
RRIRRRPPRLPRPRPRPKCWPRP | 0.307
RRIRRRPPRLPRPRPRPKDWPRP | 0.36
RRIRRRPPRLPRPRPRPKEGPRP | -0.000243
RRIRRRPPRLPRPRPRPKFRPRP | -0.0588
RRIRRRPPRLPRPRPRPKGKPRP | 0.195
RRIRRRPPRLPRPRPRPKIIPRP | -0.364
RRIRRRPPRLPRPRPRPKIMPRP | -0.0825
RRIRRRPPRLPRPRPRPKLGPRP | 0.141
RRIRRRPPRLPRPRPRPKLSPRP | 0.262
RRIRRRPPRLPRPRPRPKLTPRP | 0.0538
RRIRRRPPRLPRPRPRPKMYPRP | -0.258
RRIRRRPPRLPRPRPRPKPLPRP | 0.474
RRIRRRPPRLPRPRPRPKQNPRP | 0.631
RRIRRRPPRLPRPRPRPKQPPRP | 0.0672
RRIRRRPPRLPRPRPRPKRVPRP | 0.298
RRIRRRPPRLPRPRPRPKRWPRP | 0.409
RRIRRRPPRLPRPRPRPKSCPRP | 0.0766
RRIRRRPPRLPRPRPRPKSDPRP | 0.441
RRIRRRPPRLPRPRPRPKSFPRP | 0.0604
